Values joined by “and” are separate entries in the source; they are usually repeats but may differ in a detail not shown here. Equal values may be shown once.

From US20110097326A1 (IRM, published 2011) come the findings set out here.

For assay [1], the target named is TrkB on rat intestinal epithelial (RIE)-TrkB cells. The experiment in a line: cell-based or functional assay.
For assay [2], the target named is T1, recombinant Fc-TrkB antigen (human) (human, UniProt Q16620 32-430, limits assumed).
T1 construct: Biotinylated for the ForteBio assays; also called Fc-hTrkB; human Fc-TrkB; not shown: Fc part
Kind of assay: BLI (ForteBio Octet), biotinylated Fc-TrkB on streptavidin sensors, IgG at 1E-8 M. On the procedure:
The binding kinetics of IgGs and Fab fragments were analyzed using a ForteBio Octet biosensor. Recombinant Fc-TrkB antigen was biotinylated using the EZ-link biotinylation kit (Pierce) according to the manufacturer's methods. The antigen was then coupled to streptavidin-coated sensors (ForteBio). Fab binding was monitored in real time using bio-layer interferometry analysis and software provided by the manufacturer. Affinities were calculated from the determined association and dissociation constants.
IgGs with human V-segments were also prepared from transient transfections of CHO cells. IgG preparations were purified and further characterized by kinetic comparison with the reference IgG A10F18.2. Binding kinetics for two of the IgGs with human V-segments were analyzed using a ForteBio Octet system for real-time label-free monitoring of protein-protein interactions.

The next assay deals with T2, TrkA-Fc fusion protein (human, UniProt P04629-2 34-407, limits assumed).
T2 construct: not shown: Fc part
Kind of assay: ELISA on Trk-hFc fusion proteins, goat anti-human Fab-HRP detection [panel D]. On the procedure:
(§1) FIG. 9A-D illustrate ELISA assays showing specific binding of NVP-LFD253, NVP-LFD254, NVP-LFC325 and NVP-LFC327 to human TrkB-Fc fusion protein but not to human […] or TrkC-Fc fusion proteins. Purified IgG at 2 μg/ml was evaluated for specificity by examining its interaction with three different Trk family members (TrkA, TrkB and TrkC). Secondary Ab are replicates that were blocked and treated with only the goat-anti-human Fab-HRP detection Ab.
(§2) IgG with human V-segments (e.g., NVP-LFD253, NVP-LFD254, NVP-LFC325, and NVP-LFC327) bind specifically to TrkB but not to TrkA or TrkC. Purified IgG antibodies at 2 μg/ml were evaluated for specificity by examining its interaction with three different Trk family members (TrkA, TrkB and TrkC). Secondary Ab are replicates that were blocked and treated with only the goat-anti-human Fab-HRP detection Ab. As shown in FIG. 9A-D, none of LFD253, LFD254, LFC325 or LFC327 bind to either of these related Trk family receptors.
(In an ELISA, binding on a coated surface is turned into a signal by an enzyme label.)

Assay [3] deals with T3, human TrkC-Fc fusion protein (human, UniProt Q16288 32-429, limits assumed).
T3 construct: not shown: Fc part
The assay is described as above. On the procedure:
as §1, §2

For assay [4], the target named is T1, recombinant Fc-TrkB antigen (human). The experiment in a line: SPR (Biacore S51), Fc-hTrkB amine-coupled to CM-5 chip, IgG in flow, global 1:1 Langmuir fit. On the procedure: Binding studies on the improved antibodies were performed by immobilizing Fc-hTrkB onto a Series S CM-5 Biacore sensor chip (certified) (Biacore #BR-1005-30). Covalent binding of the Fc-fusion protein was done with the ‘Amine Coupling Kit’ (Biacore #BR-1000-50). The Fc-Fusion protein was attached to the EDC-activated dextran surface at 5 μg/ml in 10 mM sodium acetate, pH 4.5 (Biacore #BR-1003-50) at a flow rate of 10 μL/min
A range of concentrations of improved antibodies were flowed over the Fc-TrkB captured chip in PBS plus 100 mM NaCl, 0.005% P20 (Biacore #BR-1000-54). The resulting sensorgrams were analyzed using the Biacore S51 Evaluation Software. Data from all concentrations was fitted globally to a 1:1 Langmuir model.
Although this antibody is bivalent, the binding was treated as a 1:1 event.
In general terms: SPR reads the build-up and loss of mass on a sensor chip optically.

B1: NVP-LFC327 (antibody, human IgG1, V domains shown)
VH: QVQLVQSGAEVKKPGASVKVSCKASGYTFTAYDMHWVRQAPGQGLEWMGWIDPNSGGTRYAQKFQGRVTMTRDTSISTAYMELSRLTSDDTAVYYCTGVTTWFAYWGQGTLVTVSS
VL: DIVMTQSPLSLPVTLGQPASISCRSSQSLVHSNGNTYLNWYQQKPGQPPRLLIYKISNRFSGVPDRFSGSGAGTDFTLKISRVEAEDVGVYYCMQGTHEPYTFGQGKLEIK
notes: IgG with human IgG1 constant region and human kappa constant region, from transiently transfected CHO cells; also called TR127 Vh & TR129 Vk
The term Kd denotes a measure of binding affinity in units of concentration. A word on the koff: it is the rate constant with which the complex falls apart. One may read the kon as the rate constant with which the complex forms. In the case of B1, the “EC50, anoikis assay on RIE-TrkB cells” value in assay [1] was 26.9 ng/ml and 180 pM. The dissociation constant Kd in assay [2] is 0.0197 nM; in assay [4], 0.146 nM. Also, the koff in assay [2] was determined as 7.9e-06 s⁻¹; in assay [4], 5.76e-05 s⁻¹. The on-rate constant (kon) in assay [2] came to 401000 M⁻¹ s⁻¹; in assay [4], 393000 M⁻¹ s⁻¹. The binding result (with TrkA-Fc fusion protein; in assay [3]) was “no binding (tested: 2 ug/ml)” throughout.
